Source: US20230204567A1 (Takeda / Millennium, published 2023)

B1: Anti-ZIKV #1 (IgG, Clone 242-3) (antibody, V domains shown)
VH: QAQLEESGGDLVKPEGSLTLTCTASGFSFTDRHYMCWIRQAPGKGLEWIACVYPGSSGSTYYASWARGRFTISKTSSTTVTLRMTSLTAADTATYFCARSSYPDSSGYSYGMDLWGPGTLVTVSS
VL: DIVMTQTPASVEAAVGGTVTIKCQASQNINSNLAWYQQKPGQRPKFLMYLTSKLASGVPSRFRGSGSGTQFTLTISDLECADAATYYCQTYYDISNYGYAFGGGTEVVVKG
notes: also called antibody 1; donor Ab of mAb pair #1
B2: Anti-ZIKV #2 (IgG, Clone 306-2) (antibody, V domains shown)
VH: QSLEESGGDLVKPGASLTLTCTASGFDFSDRYYMCWVRQAPGKGLEWIGCIYVGSGDTYYASWAKGRFTISRTSSTTVTLQMTRLTAADTATYFCARHPGTYFTLWGPGTLVTVSS
VL: DVVMTQTPSSVSAAVGGTVTINCQASQNIVNNLAWYQQRPGQPPKLLIYDTSTLASGVPSRFKGSGSGTEFTLTISDLECADAATYYCQTYYYYNKIINGFGGGTEVVVKG
notes: also called antibody 2; acceptor Ab of mAb pairs #1 to 3

Experiments:
[1] = target: T1, inactivated DENV1 (West Pacific 74, Microbix) (Dengue virus serotype 1, UniProt P17763 281-775); experiment: ELISA, antigen coated at 1 µg/mL, hybridoma supernatant
T1 construct: also called dengue virus serotype 1
T1 sequence (P17763 281-775 limits assumed): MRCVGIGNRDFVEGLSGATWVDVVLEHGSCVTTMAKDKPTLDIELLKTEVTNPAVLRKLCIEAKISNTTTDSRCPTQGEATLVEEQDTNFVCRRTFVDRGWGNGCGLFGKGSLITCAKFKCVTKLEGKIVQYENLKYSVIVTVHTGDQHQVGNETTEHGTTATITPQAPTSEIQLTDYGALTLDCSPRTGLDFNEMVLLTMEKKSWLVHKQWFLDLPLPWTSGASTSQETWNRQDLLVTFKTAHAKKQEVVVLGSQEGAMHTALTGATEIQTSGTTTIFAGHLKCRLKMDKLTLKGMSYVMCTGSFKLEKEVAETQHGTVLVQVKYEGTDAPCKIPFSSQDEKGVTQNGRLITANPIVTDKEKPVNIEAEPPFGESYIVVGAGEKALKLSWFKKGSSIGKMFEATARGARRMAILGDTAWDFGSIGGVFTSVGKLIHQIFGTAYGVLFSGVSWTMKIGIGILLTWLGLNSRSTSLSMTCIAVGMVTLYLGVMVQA

[2] = target: T2, inactivated DENV2 (16681; Microbix) (Dengue virus serotype 2, UniProt P29990 281-775); experiment: as above
T2 construct: also called dengue virus serotype 2

[3] = target: T3, ZIKV E protein (Native Antigen) (Zika virus); experiment: ELISA, antigen coated at 1 µg/mL, hybridoma supernatant, anti-rabbit IgG-HRP
T3 chain: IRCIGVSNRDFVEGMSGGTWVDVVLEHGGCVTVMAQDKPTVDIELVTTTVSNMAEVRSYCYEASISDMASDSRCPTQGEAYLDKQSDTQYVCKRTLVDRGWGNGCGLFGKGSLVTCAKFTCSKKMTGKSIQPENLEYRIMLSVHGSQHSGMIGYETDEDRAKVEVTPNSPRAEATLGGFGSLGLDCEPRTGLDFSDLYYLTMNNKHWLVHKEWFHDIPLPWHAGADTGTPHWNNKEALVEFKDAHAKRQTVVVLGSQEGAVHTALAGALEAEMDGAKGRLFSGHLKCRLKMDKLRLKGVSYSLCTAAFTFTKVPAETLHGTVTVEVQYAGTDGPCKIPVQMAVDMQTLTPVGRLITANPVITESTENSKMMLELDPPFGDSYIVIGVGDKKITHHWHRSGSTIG

[4] = target: T4, inactivated DENV3 (CH53489, Microbix) (Dengue virus serotype 3); experiment: as above
T4 construct: also called dengue virus serotype 3

[5] = target: T5, inactivated DENV4 (TVP-360, Microbix) (Dengue virus serotype 4); experiment: as above
T5 construct: also called dengue virus serotype 4

[6] = target: T1, inactivated DENV1 (West Pacific 74, …); experiment: as above
[7] = target: T2, inactivated DENV2 (16681; Microbix); experiment: as above

| Binder | binding result [1] | binding result [2] | optical density (OD) [3] [OD] | optical density (OD) [4] [OD] | optical density (OD) [5] [OD] | optical density (OD) [6] [OD] | optical density (OD) [7] [OD] |
| --- | --- | --- | --- | --- | --- | --- | --- |
| B1 | no binding | no binding | 0.33 | 0.04 | 0.038 | 0.04 | 0.034 |
| B2 | no binding | no binding | 0.61 | 0.034 | 0.048 | 0.037 | 0.034 |
